Drawing on article PMC7581431, this text covers molecules per core (molecules per core) for one molecule.

The target of the test is Lip-NKD-HisC (human (identical sequence in mouse and human)) (UniProt Q969G9). The experiment in a line: aggregation and co-aggregation assay read by PAGE; purified proteins in 15 mM acetate, 150 mM NaCl, pH 5.0 mixed in different ratios; after 10 min 1 M Tris-HCl pH 8.0 added to 200 mM; after 20 min boiled 10 min in LDS sample buffer; PAGE under denaturing and reducing conditions.
Chain of Lip-NKD-HisC (human (identical sequence in mouse and human)) (Q969G9 whole entry): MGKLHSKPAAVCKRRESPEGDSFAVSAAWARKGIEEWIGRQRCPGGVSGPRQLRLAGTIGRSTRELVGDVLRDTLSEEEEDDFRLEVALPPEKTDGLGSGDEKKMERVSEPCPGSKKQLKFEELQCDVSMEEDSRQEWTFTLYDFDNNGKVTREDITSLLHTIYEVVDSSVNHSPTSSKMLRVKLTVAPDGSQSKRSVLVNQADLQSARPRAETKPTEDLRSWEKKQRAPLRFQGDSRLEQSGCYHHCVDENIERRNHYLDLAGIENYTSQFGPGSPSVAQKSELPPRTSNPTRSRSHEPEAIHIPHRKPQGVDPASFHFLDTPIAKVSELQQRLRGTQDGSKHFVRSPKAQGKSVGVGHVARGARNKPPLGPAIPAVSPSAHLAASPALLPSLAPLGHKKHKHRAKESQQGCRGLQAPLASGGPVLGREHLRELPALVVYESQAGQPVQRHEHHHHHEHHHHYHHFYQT

KHVHHHYIHHHA (domain or fragment) [MBP-Axin2-HisC]: the molecules per core (molecules per core) was less than 4.
